The record followed here is patent publication US20220185894A1 (F STAR THERAPEUTICS, published 2022).

Experiment [1] has as its target T1, cynomolgus LAG-3 expressed on cells (cynomolgus monkey, UniProt P18627 24-525 (human entry)).
T1 construct: also called cLAG-3; cyno LAG-3
T1 chain: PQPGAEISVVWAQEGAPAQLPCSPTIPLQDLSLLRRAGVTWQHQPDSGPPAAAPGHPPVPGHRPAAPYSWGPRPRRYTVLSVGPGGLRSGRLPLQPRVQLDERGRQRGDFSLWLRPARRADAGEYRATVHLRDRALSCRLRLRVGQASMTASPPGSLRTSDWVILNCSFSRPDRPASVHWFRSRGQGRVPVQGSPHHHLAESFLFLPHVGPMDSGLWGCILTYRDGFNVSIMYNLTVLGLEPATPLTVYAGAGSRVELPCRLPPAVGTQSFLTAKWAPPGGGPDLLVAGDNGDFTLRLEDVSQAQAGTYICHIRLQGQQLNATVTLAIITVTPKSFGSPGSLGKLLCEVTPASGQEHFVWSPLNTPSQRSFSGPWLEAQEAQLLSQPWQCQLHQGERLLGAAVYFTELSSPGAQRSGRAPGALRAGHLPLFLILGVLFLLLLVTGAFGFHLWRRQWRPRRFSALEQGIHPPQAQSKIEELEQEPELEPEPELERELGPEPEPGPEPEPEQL
The experiment is described as follows: flow cytometry on HEK cells expressing cynomolgus LAG-3. How it is done: The affinity of the mAb² (all containing the LALA mutation) for cell expressed human or cynomolgus LAG-3 was determined using flow cytometry. HEK cells expressing human or cynomolgus LAG-3 grown in DMEM (Life Technologies, 61965-026) containing 10% FBS (Life Technologies, 10270-1-6), 100 μg/ml Hygromycin B (Melford Laboratories Ltd, Z2475), 15 μg/ml Blasticidin (Melford Laboratories Ltd, B1105) and 1 μg/ml Doxycyclin (Sigma, D9891) were detached from tissue culture flasks using cell dissociation buffer (Life Technologies, 13151-014) and seeded in V-bottom 96-well plates (Costar, 3897) at 2×10⁵ cells/well. The plates were centrifuged at 1500 rpm for 3 min at 4° C. to pellet the cells. A dilution series of the mAb² (or control mAb) were incubated with the cells in a 100 μl volume for 1 h at 4° C. The plates were washed and secondary antibody (Anti-human Fc-488, Jackson ImmunoResearch, 109-546-098) was diluted 1:1000 in PBS and 100 μl was added to the cells for 30 min at 4° C. (plates were kept in the dark). The plates were washed and then cells were resuspended in 100 μl PBS containing 1 μg/ml DAPI (Biotium, 40043). The plates were read using Canto II flow cytometer (BD Bioscience). Dead cells were excluded and the fluorescence in the FITC channel (488 nm/530/30) was measured. The data was fit using log (agonist) vs response in GraphPad Prism Software. The plates were read on a BD FACSCanto II cytometer (BD Biosciences) and the data analysed using FlowJo.

For experiment [2], the target named is T2, recombinant Fc-tagged human LAG-3 (R&D Systems, 2319-L3-050) (human, UniProt P18627 23-450).
T2 construct: Bought protein; also called LAG-3 Fc; human LAG-3-Fc; not shown: Fc tag of the bought fusion protein
T2 sequence: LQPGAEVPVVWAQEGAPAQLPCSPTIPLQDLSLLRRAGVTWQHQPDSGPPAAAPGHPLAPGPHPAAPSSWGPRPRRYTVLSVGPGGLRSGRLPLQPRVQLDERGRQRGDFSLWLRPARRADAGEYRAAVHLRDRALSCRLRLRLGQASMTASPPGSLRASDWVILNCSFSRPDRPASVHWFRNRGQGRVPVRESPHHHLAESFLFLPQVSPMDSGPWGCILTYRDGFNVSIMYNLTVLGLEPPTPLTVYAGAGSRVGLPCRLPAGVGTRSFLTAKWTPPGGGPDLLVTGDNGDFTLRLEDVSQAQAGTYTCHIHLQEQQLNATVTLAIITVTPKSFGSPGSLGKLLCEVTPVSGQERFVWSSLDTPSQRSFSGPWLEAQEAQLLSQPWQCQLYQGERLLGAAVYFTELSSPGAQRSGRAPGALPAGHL
Description: SPR, BIAcore T200; mAb2 captured on Protein L, human LAG-3 Fc injected. (In general: In SPR one partner is held on a chip, and binding of the other changes the refractive index at the surface.)

Some results are limits rather than exact numbers.

B1: anti-human LAG-3/PD-L1 mAb2 FS18-7-9/84G09 with LALA mutation (bispecific antibody, human IgG1, kappa, L234A L235A)
heavy: EVQLVESGGGLVQPGRSLRLSCAASGFTFDDYAMHWVRQTPGKGLEWVSGISWKSNIIGYADSVKGRFTISRDNAKNSLYLQMNSLRAEDTALYYCARDITGSGSYGWFDPWGQGTLVTVSSASTKGPSVFPLAPSSKSTSGGTAALGCLVKDYFPEPVTVSWNSGALTSGVHTFPAVLQSSGLYSLSSVVTVPSSSLGTQTYICNVNHKPSNTKVDKKVEPKSCDKTHTCPPCPAPEAAGGPSVFLFPPKPKDTLMISRTPEVTCVVVDVSHEDPEVKFNWYVDGVEVHNAKTKPREEQYNSTYRVVSVLTVLHQDWLNGKEYKCKVSNKALPAPIEKTISKAKGQPREPQVYTLPPSWDEPWGEDVSLTCLVKGFYPSDIAVEWESNGQPENNYKTTPPVLDSDGSFFLYSKLTVPYDRWVWPDEFSCSVMHEALHNHYTQKSLSLSPG
light: DIQMTQSPSSLSASVGDRVTITCRASQSISSYLNWYQQKPGKAPKPLIYVASSLQSGVPSSFSGSGSGTDFTLTISSLQPEDFATYYCQQSYSNPITFGQGTRLEIKRTVAAPSVFIFPPSDEQLKSGTASVVCLLNNFYPREAKVQWKVDNALQSGNSQESVTEQDSKDSTYSLSSTLTLSKADYEKHKVYACEVTHQGLSSPVTKSFNRGEC
notes: also called FS18-7-09/84G09LALA; FS18-7-9/84G09 LALA
For the molecule B1, in experiment [1], the EC50 was determined as 29.9 nM and the “fold better binding (EC50) than control antibody 25F7” value is at least 2 fold. Also, in experiment [2], the dissociation constant (Kd) came out at 0.056 nM, the koff was found to be 0.00035 s⁻¹ and the kon is 6.3e+06 M⁻¹ s⁻¹.

As a reminder, the EC50 is the midpoint of the concentration-response curve. A lower EC50 goes with higher potency in that assay. Broadly, the Kd is a measure of binding affinity in units of concentration. As a reminder, the koff is a measure of how fast the partners let go of each other. For orientation: kon means a measure of how fast the partners come together.
